Experimental data published in US20230235040A1 (ALMIRALL S A, published 2023).
One block for each binder: values may come before it.

How the values were obtained:
[1] = target: T1, hu-IL-36α (human IL-36α, N-terminally truncated active form K6-F158) (human, UniProt Q9UHA7 6-158); assay: cell-based or functional assay
T1 sequence: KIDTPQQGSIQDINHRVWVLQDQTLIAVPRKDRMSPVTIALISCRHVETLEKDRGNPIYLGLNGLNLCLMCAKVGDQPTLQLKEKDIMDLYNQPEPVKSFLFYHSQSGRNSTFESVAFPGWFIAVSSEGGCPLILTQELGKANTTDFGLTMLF

[2] = target: T2, hu-IL-36γ (human IL-36γ, N-terminally truncated active form S18-D169) (human, UniProt Q9NZH8 18-169); assay: cell-based or functional assay
T2 sequence: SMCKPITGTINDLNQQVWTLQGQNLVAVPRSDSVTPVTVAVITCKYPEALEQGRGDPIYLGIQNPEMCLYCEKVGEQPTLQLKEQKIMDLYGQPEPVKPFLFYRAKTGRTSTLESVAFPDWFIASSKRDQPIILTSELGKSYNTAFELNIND

[3] = target: T3, cy-IL-36α (cynomolgus monkey IL-36α, K6-F158) (cynomolgus monkey, UniProt Q9UHA7 14-158 (human entry)); assay: cell-based or functional assay
T3 chain: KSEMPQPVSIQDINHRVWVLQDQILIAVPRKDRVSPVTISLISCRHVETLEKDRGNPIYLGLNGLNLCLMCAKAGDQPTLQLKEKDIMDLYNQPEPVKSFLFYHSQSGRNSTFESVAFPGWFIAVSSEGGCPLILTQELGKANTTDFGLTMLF

[4] = target: T4, cy-IL-36γ (cynomolgus monkey IL-36γ, S18-K168) (cynomolgus monkey, UniProt Q9NZH8 18-167 (human entry)); assay: cell-based or functional assay
T4 chain: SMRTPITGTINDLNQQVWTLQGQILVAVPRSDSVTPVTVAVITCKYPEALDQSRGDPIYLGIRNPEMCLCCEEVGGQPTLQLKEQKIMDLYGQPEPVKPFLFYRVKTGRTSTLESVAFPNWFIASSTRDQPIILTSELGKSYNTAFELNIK

[5] = target: T1, hu-IL-36α (human IL-36α, N-terminally …); assay: cell-based or functional assay; remark: listed apart in the source
[6] = target: T2, hu-IL-36γ (human IL-36γ, N-terminally …); assay: cell-based or functional assay; remark: listed apart in the source
[7] = target: T5, hu-IL-36β (human IL-36β, N-terminally truncated active form R5-E157) (human); assay: cell-based or functional assay
T5 chain: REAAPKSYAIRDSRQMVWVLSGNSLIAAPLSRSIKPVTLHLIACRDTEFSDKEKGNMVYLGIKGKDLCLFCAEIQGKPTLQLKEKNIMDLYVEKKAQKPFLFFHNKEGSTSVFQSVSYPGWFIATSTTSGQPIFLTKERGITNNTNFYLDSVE

[8] = target: T5, hu-IL-36β (human IL-36β, N-terminally …); assay: SPR (Biacore 8K), IgG captured on protein A chip, 37°C
Protocol: (§1) FC1 was kept as a reference. Next, 3-fold serial dilutions of hu-IL-36β in HBS-P buffer from low (0.046 nM of hu-IL-36β) to high (100 nM of hu-IL-36β) were injected (flow rate: 30 μL/min) at either 37° C. The sensorgram was recorded and subject to reference and buffer subtraction before data analysis with the BIACORE® 8K Evaluation Software (GE Healthcare, Chicago, Ill., USA; version 1.1.1.7442). Association rates (kₒₙ) and dissociation rates (koff) were calculated using a simple one-to-one Langmuir binding model. The equilibrium dissociation constant (KD) was calculated as the ratio of koff/kₒₙ.

[9] = target: T5, hu-IL-36β (human IL-36β, N-terminally …); assay: SPR (Biacore 8K), IgG captured on protein A chip, hu-IL-36β injected, 37°C
Protocol: as §1

[10] = target: T5, hu-IL-36β (human IL-36β, N-terminally …); assay: cell-based or functional assay
[11] = target: T6, cy-IL-36β (cynomolgus monkey IL-36β, W5-E157) (cynomolgus monkey); assay: cell-based or functional assay
T6 chain: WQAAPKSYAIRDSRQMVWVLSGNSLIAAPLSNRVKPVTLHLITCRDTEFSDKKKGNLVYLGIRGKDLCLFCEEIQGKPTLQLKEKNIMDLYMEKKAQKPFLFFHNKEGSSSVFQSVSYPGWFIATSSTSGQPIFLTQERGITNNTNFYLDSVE

IC50, HEK-Blue IL-36R SEAP reporter assay [1]: 5.7 nM
IC50, HEK-Blue IL-36R SEAP reporter assay [2]: 7.5 nM
IC50, HEK-Blue assay with human IL1RL2 [3]: 0.56 nM
IC50, HEK-Blue assay with human IL1RL2 [4]: 1.71 nM
IC50, IL-36-stimulated IL-8 secretion by HaCat cells [5]: 0.28 nM
IC50, IL-36-stimulated IL-8 secretion by primary human keratinocytes (HEKn) [5]: 0.33 nM
blocking potency relative to the natural antagonist IL-36Ra, HaCat IL-8 assay [5]: 100 fold
IC50, IL-36-stimulated IL-8 secretion by HaCat cells [6]: 1.23 nM
IC50, IL-36-stimulated IL-8 secretion by primary human keratinocytes (HEKn) [6]: 2.27 nM
blocking potency relative to the natural antagonist IL-36Ra, HaCat IL-8 assay [6]: 12 fold
B1: mAb2.0 recombinant human IgG1 (antibody, V domains shown)
VH: QLQLQESGPGLVKPSETLSLTCTVSGGSISTSSYYWGWIRQPPGKGLEWIGSIYYTGNTYYNPSLKSRVTISVDTSKNQFSLKLSSVTAADTAVYYCARVRYGVGVPRYFDPWGQGTLVTVSS
VL: QSVLTQPPSVSGAPGQRVTISCTGSSSNIGAHYDVHWYQQLPGTAPKLLIYGNDNRPSGVPDRFSGSKSGTSASLAITGLQAEDEADYYCQSYDYSLSGYVFGGGTKLTVLG

IC50, hu-IL-36β-stimulated IL-8 secretion by HaCat cells [7]: 12.7 nM
fold decrease in potency relative to mAb6.0 IgG, HaCat IL-8 assay [7]: 16 fold
fold lower affinity than mAb6.0 [8]: 16 fold
Kd [9]: 6.7 nM
koff [9]: 0.00214 s⁻¹
kon [9]: 320000 M⁻¹ s⁻¹
B2: mAb6.0_2.0 IgG (mAb6.0 HC/mAb2.0 LC chimera) (antibody, V domains shown)
VH: QLQLQESGPGLVKPSETLSLTCTVSGGSITSSNYYWGWIRQPPGKGLEWIGSIDYTGSTYYNPSLKSRVTISVDTSKNQFSLKLSSVTAADTAVYYCARGKYYETYLGFDVWGQGTLVTVSS
VL: QSVLTQPPSVSGAPGQRVTISCTGSSSNIGAHYDVHWYQQLPGTAPKLLIYGNDNRPSGVPDRFSGSKSGTSASLAITGLQAEDEADYYCQSYDYSLSGYVFGGGTKLTVLG

IC50, HEK-Blue IL-36R SEAP reporter assay [10]: 0.64 nM
IC50, HEK-Blue assay with human IL1RL2 [11]: 1.96 nM
IC50, IL-36-stimulated IL-8 secretion by HaCat cells [7]: 0.082 nM
IC50, IL-36-stimulated IL-8 secretion by primary human keratinocytes (HEKn) [7]: 1.75 nM
IC50, hu-IL-36β-stimulated IL-8 secretion by HaCat cells [7]: 0.8 nM
blocking potency relative to IL-36Ra, HaCat IL-8 assay [7]: 1000 fold
Kd [9]: 0.42 nM
koff [9]: 0.000115 s⁻¹
kon [9]: 362000 M⁻¹ s⁻¹
B3: mAb6.0 recombinant human IgG1 (antibody, V domains shown)
VH: QLQLQESGPGLVKPSETLSLTCTVSGGSITSSNYYWGWIRQPPGKGLEWIGSIDYTGSTYYNPSLKSRVTISVDTSKNQFSLKLSSVTAADTAVYYCARGKYYETYLGFDVWGQGTLVTVSS
VL: QESVLTQPPSVSGAPGQRVTISCTGSSSNIGAGYDVHWYQQLPGTAPKLLIYGNTNRPSGVPDRFSGSKSGTSASLAITGLQAEDEADYYCQSYDISLSGWVFGGGTKLTVLG
notes: Human IgG1; also called mAb6.0 IgG
